What was measured:
Assay type in all cases: biochemical, human
[1] = substrate: CC(=O)Oc1ccc(-c2cc3cc(Cl)ccc3oc2=O)cc1; assay: Michaelis–Menten kinetics of oxidation to fluorescent 7-hydroxy metabolite by recombinant CYP1A2; settings: other: recombinant CYP1A2, 100 mM Tris-HCl pH 7.4, 37 °C, 95% confidence interval in brackets
Protocol: (§1) Baculovirus-insect cell-expressed human CYP1A1, CYP1A2, CYP1B1, CYP2A6, CYP2B6, CYP2C8, CYP2C9, CYP2C19, CYP2D6, CYP2E1, CYP3A4, CYP3A5, and CYP3A7 were purchased from BD Biosciences Discovery Labware (Woburn, MA, USA) and used according to the manufacturer’s instructions.
(§2) The kinetic assays were carried out in 100 μL volume containing 100 mM Tris-HCl buffer pH 7.4, 0–40 μM coumarin derivative or 0–10 μM 7-ethoxyresorufin, 1–25 nM recombinant CYP or 0–0.1 g/L microsomal protein, and 20% NADPH regenerating system. Incubations took place at 37 °C in 96-multiwell plates; the fluorescence was measured with a Victor[2] plate reader (PerkinElmer Life Sciences, Turku, Finland). The detailed conditions are described in the figures and tables. The reaction was started by adding NADPH, and fluorescence was measured at 2 min intervals for 40 min using excitation at 405 nm and emission at 460 nm for oxidation of coumarin derivatives[18] and excitation at 570 nm and emission at 615 nm for ethoxyresorufin or pentoxyresorufin 7-O-dealkylations. Incubations without the substrate, enzyme, or NADPH were used as blank reactions. Resorufin was used as a standard, and 3-(4-fluorophenyl)-7-hydroxycoumarin was used as the surrogate standards to calculate the amount of product formed. The linear phase of the reactions was used for calculations.
(§3) Enzyme kinetic parameters were analyzed using the nonlinear Michaelis–Menten equation v = Vmax × S/(Km + S), in which v is the rate for 7-hydroxylation of a coumarin derivative, S is its concentration, and Vmax value is the limiting rate of the reaction of 7-hydroxylation, which reached a half-maximal rate at a concentration of Km for the substrate.

[2] = substrate: CCOc1ccc2nc3ccc(=O)cc-3oc2c1; assay: as above; settings: other: recombinant CYP1A2, 100 mM Tris-HCl pH 7.4, 37 °C, 95% confidence interval in brackets
Protocol: as §1, §2, §3

[3] = substrate: COc1ccc(-c2cc3cc(OC(C)=O)ccc3oc2=O)cc1; assay: as above; settings: other: recombinant CYP1A2, 100 mM Tris-HCl pH 7.4, 37 °C, 95% confidence interval in brackets
Protocol: as §1, §2, §3

[4] = substrate: COc1ccc2cc(-c3ccc(OC(F)(F)F)cc3)c(=O)oc2c1; assay: as above; settings: other: recombinant CYP1A2, 100 mM Tris-HCl pH 7.4, 37 °C, 95% confidence interval in brackets
Protocol: as §1, §2, §3

[5] = substrate: COc1ccc2oc(=O)c(-c3ccc(O)c(F)c3)cc2c1; assay: as above; settings: other: recombinant CYP1A2, 100 mM Tris-HCl pH 7.4, 37 °C, 95% confidence interval in brackets
Protocol: as §1, §2, §3

[6] = substrate: COc1ccc2oc(=O)c(-c3ccc(OC(F)(F)F)cc3)cc2c1; assay: as above; settings: other: recombinant CYP1A2, 100 mM Tris-HCl pH 7.4, 37 °C, 95% confidence interval in brackets
Protocol: as §1, §2, §3

[7] = substrate: COc1cccc(-c2cc3cc(OC)ccc3oc2=O)c1; assay: as above; settings: other: recombinant CYP1A2, 100 mM Tris-HCl pH 7.4, 37 °C, 95% confidence interval in brackets
Protocol: as §1, §2, §3

[8] = substrate: Cc1ccc2oc(=O)c(-c3ccc(F)cc3)cc2c1; assay: as above; settings: other: recombinant CYP1A2, 100 mM Tris-HCl pH 7.4, 37 °C, 95% confidence interval in brackets
Protocol: as §1, §2, §3

[9] = substrate: O=c1oc2ccc(O)cc2cc1-c1cccc(O)c1; assay: as above; settings: other: recombinant CYP1A2, 100 mM Tris-HCl pH 7.4, 37 °C, 95% confidence interval in brackets
Protocol: as §1, §2, §3

[10] = substrate: O=c1oc2ccccc2cc1-c1cccc(O)c1; assay: as above; settings: other: recombinant CYP1A2, 100 mM Tris-HCl pH 7.4, 37 °C, 95% confidence interval in brackets
Protocol: as §1, §2, §3

[11] = substrate: CC(=O)Oc1ccc(-c2cc3cc(Cl)ccc3oc2=O)cc1; assay: Michaelis–Menten kinetics of oxidation to fluorescent 7-hydroxy metabolite by recombinant CYP1B1; settings: other: recombinant CYP1B1, 100 mM Tris-HCl pH 7.4, 37 °C, 95% confidence interval in brackets
Protocol: as §1, §2, §3

[12] = substrate: CC(=O)Oc1cccc(-c2cc3cc(Cl)ccc3oc2=O)c1; assay: as above; settings: other: recombinant CYP1B1, 100 mM Tris-HCl pH 7.4, 37 °C, 95% confidence interval in brackets
Protocol: as §1, §2, §3

[13] = substrate: CCCCCOc1ccc2nc3ccc(=O)cc-3oc2c1; assay: as above; settings: other: recombinant CYP1B1, 100 mM Tris-HCl pH 7.4, 37 °C, 95% confidence interval in brackets
Protocol: as §1, §2, §3

[14] = substrate: CCOc1ccc2ccc(=O)oc2c1; assay: as above; settings: other: recombinant CYP1B1, 100 mM Tris-HCl pH 7.4, 37 °C, 95% confidence interval in brackets
Protocol: as §1, §2, §3

[15] = substrate: CCOc1ccc2nc3ccc(=O)cc-3oc2c1; assay: as above; settings: other: recombinant CYP1B1, 100 mM Tris-HCl pH 7.4, 37 °C, 95% confidence interval in brackets
Protocol: as §1, §2, §3

[16] = substrate: COc1cccc(-c2cc3cc(OC)ccc3oc2=O)c1; assay: as above; settings: other: recombinant CYP1B1, 100 mM Tris-HCl pH 7.4, 37 °C, 95% confidence interval in brackets
Protocol: as §1, §2, §3

[17] = substrate: O=c1oc2ccc(O)cc2cc1-c1cccc(O)c1; assay: as above; settings: other: recombinant CYP1B1, 100 mM Tris-HCl pH 7.4, 37 °C, 95% confidence interval in brackets
Protocol: as §1, §2, §3

B1: human CYP1A2 (Homo sapiens) (protein)
chain: MALSQSVPFSATELLLASAIFCLVFWVLKGLRPRVPKGLKSPPEPWGWPLLGHVLTLGKNPHLALSRMSQRYGDVLQIRIGSTPVLVLSRLDTIRQALVRQGDDFKGRPDLYTSTLITDGQSLTFSTDSGPVWAARRRLAQNALNTFSIASDPASSSSCYLEEHVSKEAKALISRLQELMAGPGHFDPYNQVVVSVANVIGAMCFGQHFPESSDEMLSLVKNTHEFVETASSGNPLDFFPILRYLPNPALQRFKAFNQRFLWFLQKTVQEHYQDFDKNSVRDITGALFKHSKKGPRASGNLIPQEKIVNLVNDIFGAGFDTVTTAISWSLMYLVTKPEIQRKIQKELDTVIGRERRPRLSDRPQLPYLEAFILETFRHSSFLPFTIPHSTTRDTTLNGFYIPKKCCVFVNQWQVNHDPELWEDPSEFRPERFLTADGTAINKPLSEKMMLFGMGKRRCIGEVLAKWEIFLFLAILLQQLEFSVPPGVKVDLTPIYGLTMKHARCEHVQARLRFSIN
notes: purchased BD Biosciences Discovery Labware (Woburn, MA, USA); host or cells: baculovirus-insect cells
Which results are given for B1?
Km [1]: 2 (1.2–2.7) μM; kcat [1]: 1.2 (1.1–1.4) mol/(min·mol CYP); Km [2]: 0.56 (0.44–0.68) μM; kcat [2]: 3.2 (2.9–3.6) mol/(min·mol CYP); Km [3]: 2.2 (1.6–2.8) μM; kcat [3]: 8.7 (8–9.4) mol/(min·mol CYP); Km [4]: 7.9 (5.1–10.6) μM; kcat [4]: 9.1 (7.8–10.5) mol/(min·mol CYP); Km [5]: 20.3 (0–53) μM; kcat [5]: 6.0 (0–12.8) mol/(min·mol CYP); Km [6]: 0.96 (0.61–1.32) μM; kcat [6]: 4.4 (4.1–4.8) mol/(min·mol CYP); Km [7]: 0.27 (0.19–0.36) μM; kcat [7]: 8.2 (7.6–8.9) mol/(min·mol CYP); Km [8]: 7.6 (0.59–14.6) μM; kcat [8]: 1 (0.63–1.38) mol/(min·mol CYP); Km [9]: 2.4 (1.8–3.1) μM; kcat [9]: 29.8 (27.5–32.2) mol/(min·mol CYP); Km [10]: 47 (8–86) μM; kcat [10]: 0.4 (0.19–0.6) mol/(min·mol CYP)

B2: human CYP1B1 (Homo sapiens) (protein)
chain: MGTSLSPNDPWPLNPLSIQQTTLLLLLSVLATVHVGQRLLRQRRRQLRSAPPGPFAWPLIGNAAAVGQAAHLSFARLARRYGDVFQIRLGSCPIVVLNGERAIHQALVQQGSAFADRPAFASFRVVSGGRSMAFGHYSEHWKVQRRAAHSMMRNFFTRQPRSRQVLEGHVLSEARELVALLVRGSADGAFLDPRPLTVVAVANVMSAVCFGCRYSHDDPEFRELLSHNEEFGRTVGAGSLVDVMPWLQYFPNPVRTVFREFEQLNRNFSNFILDKFLRHCESLRPGAAPRDMMDAFILSAEKKAAGDSHGGGARLDLENVPATITDIFGASQDTLSTALQWLLLLFTRYPDVQTRVQAELDQVVGRDRLPCMGDQPNLPYVLAFLYEAMRFSSFVPVTIPHATTANTSVLGYHIPKDTVVFVNQWSVNHDPLKWPNPENFDPARFLDKDGLINKDLTSRVMIFSVGKRRCIGEELSKMQLFLFISILAHQCDFRANPNEPAKMNFSYGLTIKPKSFKVNVTLRESMELLDSAVQNLQAKETCQ
notes: as for B1
B2 was tested. Which Km [11] did it give?
Its Km is 0.095 (0.04–0.15) μM.

And the kcat [11]?
The kcat was 5.1 (4.7–5.5) mol/(min·mol CYP).

What about the Km [12] of the same protein?
Its Km is 1.1 (0.5–1.7) μM.

And the kcat [12]?
The kcat was 1.1 (0.96–1.2) mol/(min·mol CYP).

What about the Km [13] of the same protein?
Its Km is 2.59 (1.65–3.53) μM.

And the kcat [13]?
The kcat was 0.37 (0.28–0.46) mol/(min·mol CYP).

And the Km [14]?
The Km was 120 (0–282) μM.

And the kcat [14]?
Its kcat is 1.75 (0–3.54) mol/(min·mol CYP).

What about the Km [15] of the same protein?
Its Km is 0.096 (0.072–0.119) μM.

What about the kcat [15] of the same protein?
Its kcat is 3.3 (3.0–3.6) mol/(min·mol CYP).

And the Km [16]?
Its Km is 0.43 (0.24–0.61) μM.

And the kcat [16]?
The kcat was 9.3 (8.2–10.4) mol/(min·mol CYP).

And the Km [17]?
Its Km is 0.53 (0–1.1) μM.

What about the kcat [17] of the same protein?
Its kcat is 0.29 (0.25–0.34) mol/(min·mol CYP).

— paper PMC8153946, “Substrate Selectivity of Coumarin Derivatives by Human CYP1 Enzymes: In Vitro Enzyme Kinetics and In Silico Modeling” (ACS Omega, 2021)
